# Laboratory results: paper PMC9818267, “Brain Natriuretic Peptide Protects Cardiomyocytes from Apoptosis and Stimulates Their Cell Cycle Re-Entry in Mouse Infarcted Hearts” (Cells, 2022)
# What was measured:
# [1] = molecular target: NPR-A or NPR-B (mouse (endogenous in cardiomyocytes))
# [2] = molecular target: NPR-A or NPR-B (mouse (endogenous in cardiomyocytes)); remark: listed apart in the source
substance,measurement,setting,value
"Brain Natriuretic Peptide, synthetic mouse BNP (1–45) peptide","pPLB/PLB ratio (Western blot) in CMs isolated from the RZ of infarcted hearts after BNP injections, against saline (decreased)",[1],-32%
same,"pPLB/PLB ratio (Western blot) in CMs isolated from the border zone (BZ) of infarcted hearts after BNP injections, against saline",[1],2.7 fold
same,"pPLB/PLB ratio (Western blot) in CMs isolated from unmanipulated adult hearts after BNP injections, against saline",[1],1.5 fold
same,"pPLB/PLB ratio (Western blot) in CMs isolated from unmanipulated neonatal hearts after BNP injections, against saline",[1],3.5 fold
same,"pPLB/PLB ratio (Western blot) in adult CMs isolated from C57BL/6 hearts and stimulated in vitro with BNP for 2–3 h, against untreated cells",[2],2.1 fold
